Measured values reported in US20260274958A1.

Biological target: VEGF-Fc (in house made by ImmuneOnco)
Sequence (chain, as listed by the source limits assumed): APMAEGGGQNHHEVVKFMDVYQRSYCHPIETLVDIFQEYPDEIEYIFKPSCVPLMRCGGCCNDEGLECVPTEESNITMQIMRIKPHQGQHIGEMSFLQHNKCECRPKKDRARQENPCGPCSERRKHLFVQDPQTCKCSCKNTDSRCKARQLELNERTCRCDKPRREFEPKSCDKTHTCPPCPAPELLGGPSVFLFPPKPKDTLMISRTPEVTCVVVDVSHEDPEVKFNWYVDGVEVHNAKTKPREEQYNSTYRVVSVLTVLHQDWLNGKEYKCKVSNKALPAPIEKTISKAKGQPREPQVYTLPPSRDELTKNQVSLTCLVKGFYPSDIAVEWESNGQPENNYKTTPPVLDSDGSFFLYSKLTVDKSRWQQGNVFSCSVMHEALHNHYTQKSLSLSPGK

For VEGFR1D2-Fc (Fc fusion), which IC50 of inhibition of VEGF-Fc induced CD69 expression (MFI) on Jurkat-CVR cells is on record?
Its IC50 of inhibition of VEGF-Fc induced CD69 expression (MFI) on Jurkat-CVR cells is 2.38 nM.
